Assay [1] has as its target T1, huTROP-2 on CHO-K1 cells over-expressing huTROP-2 protein (human, UniProt P09758 27-323).
T1 construct: No signal peptide cleavage is stated for this form; also called CHO-K1/hTROP-2
T1 sequence: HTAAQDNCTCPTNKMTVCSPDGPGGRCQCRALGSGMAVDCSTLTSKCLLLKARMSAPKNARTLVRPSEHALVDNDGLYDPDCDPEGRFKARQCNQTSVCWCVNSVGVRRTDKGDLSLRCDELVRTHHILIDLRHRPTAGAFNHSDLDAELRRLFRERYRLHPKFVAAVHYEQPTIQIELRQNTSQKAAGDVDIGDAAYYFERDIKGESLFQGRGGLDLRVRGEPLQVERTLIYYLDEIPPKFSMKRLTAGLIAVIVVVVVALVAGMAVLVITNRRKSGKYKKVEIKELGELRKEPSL
Put plainly: activity verification on CHO-K1 cells over-expressing huTROP-2 (method not detailed).

In assay [2] the target is T2, huTROP-2 protein (His27-Thr274 Accession #NP_002344.2) (human, UniProt P09758 27-274).
T2 sequence: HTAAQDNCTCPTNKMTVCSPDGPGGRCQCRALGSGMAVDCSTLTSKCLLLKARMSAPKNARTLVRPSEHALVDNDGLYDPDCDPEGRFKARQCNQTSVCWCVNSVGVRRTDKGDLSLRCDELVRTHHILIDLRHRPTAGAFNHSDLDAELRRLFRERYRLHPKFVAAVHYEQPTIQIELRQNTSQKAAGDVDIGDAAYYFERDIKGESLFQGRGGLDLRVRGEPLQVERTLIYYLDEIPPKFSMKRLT
As to the kind of experiment: activity verification with huTROP-2 protein His27-Thr274 (method not detailed).

Assay [3] addresses T3, human CD79B (Homo sapiens, UniProt P40259).
T3 construct: endogenous in cells; host or cells: DOHH2
T3 sequence (P40259 29-229): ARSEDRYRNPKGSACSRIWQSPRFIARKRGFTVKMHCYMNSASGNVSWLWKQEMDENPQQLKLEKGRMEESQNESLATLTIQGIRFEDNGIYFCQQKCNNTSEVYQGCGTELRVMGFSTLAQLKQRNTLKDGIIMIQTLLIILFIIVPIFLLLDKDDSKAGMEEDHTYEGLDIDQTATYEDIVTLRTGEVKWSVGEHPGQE
T3 sequence (P11912 33-226 partner): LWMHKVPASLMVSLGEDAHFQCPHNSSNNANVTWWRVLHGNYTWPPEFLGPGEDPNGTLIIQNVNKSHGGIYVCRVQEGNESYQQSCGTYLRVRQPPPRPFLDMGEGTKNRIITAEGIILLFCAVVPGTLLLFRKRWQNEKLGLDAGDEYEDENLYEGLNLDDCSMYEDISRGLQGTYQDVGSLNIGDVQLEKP
As to the kind of experiment: FACS assay on purified anti-human CD79B mouse monoclonal antibodies (DOHH2 cells). The assay is classed as binding. The protocol:
3) FACS assay on anti-human CD79B mouse monoclonal antibodies: after centrifugation, the cell suspension of DOHH2 was resuspended in PBS containing 0.1% BSA, counted, added with 100 μL of antibody diluted 1:10 at 100 nM and incubated at room temperature for 1 h. The cells were washed three times, then added with Anti-Mouse IgG (Fc specific)-FITC secondary antibody, and incubated at room temperature for 30 min in the dark. The cells were washed three times, gently resuspended in PBS containing 0.1% BSA, and then assayed using the machine.

Assay [4] has as its target T4, human CD79B (Homo sapiens, UniProt P40259).
T4 construct: the extracellular region (ECD) of which comprises 159 amino acids (Met1-Asp159); human Fc domain (hFc) OR His tag; made in house; host or cells: 293F cells
T4 sequence (P40259 29-159 limits assumed): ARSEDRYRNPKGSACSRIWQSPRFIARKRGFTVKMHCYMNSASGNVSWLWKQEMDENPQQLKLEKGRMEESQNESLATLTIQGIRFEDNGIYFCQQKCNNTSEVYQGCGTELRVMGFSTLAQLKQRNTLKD
As to the kind of experiment: ELISA assay on purified anti-human CD79B mouse monoclonal antibodies. The assay is classed as binding. The protocol:
(§1) 2) ELISA assay on anti-human CD79B mouse monoclonal antibodies: the 96-well plates were correspondingly labeled before experiment, and coated with 1 μg/mL antigen at 50 μL per well in a refrigerator at 4° C. overnight. The next day, the coated antigen plates from the previous day were removed and washed once with a plate washer (cleaning solution: 1×PBST). After washing, the plates were blocked with 1% BSA blocking solution prepared in 1×PBST at 37° C. for 1 h. After being washed with 1×PBST cleaning solution for 3 times, the plates were added with 50 μL of diluted antibody at 1:10 at 100 nM, and incubated in a 37° C. incubator for 1 h. After the plates were washed with 1×PBST cleaning solution for 3 times, added with 100 μL of goat anti-mouse secondary antibody diluted at 1:5000, and incubated in an incubator at 37° C. for 0.5 h. The plates were washed, the TMB color developing solution A solution and B solution in a ratio of 1:1 was taken for to color development. The color development reaction was terminated with 1 N hydrochloric acid for 15 min. Fluorescence value was read at 450 nm on a Spectra Max M5 multi-functional plate reader.
(In general: An ELISA detects its analyte on a solid surface through an enzyme-linked reagent.)

The target in assay [5] is T3, human CD79B. As to the kind of experiment: FACS of culture supernatant of anti-human CD79B hybridoma positive clones on DOHH2 cells. The assay is classed as binding. The procedure:
4) FACS screening: after centrifugation, the cell suspension of DOHH2 was resuspended in PBS containing 0.1% BSA, counted, added with the test cell supernatant and incubated at room temperature for 60 min. The cells were washed three times, then added with Anti-Mouse IgG (Fc specific)-FITC secondary antibody, and incubated at room temperature for 30 min in the dark. The cells were washed three times, gently resuspended in PBS containing 0.1% BSA, and then assayed using the machine.
5) Hybridoma positive clone identification: after fusion and subclone screening of mouse splenocytes, multiple specific antibodies against human CD79B antigen were obtained, and the antibodies from the 17 strains of hybridomas having the highest binding to ELISA and FACS were produced and purified. Meanwhile, specific antibodies against monkey CD79B antigen were obtained, and the 4 strains of hybridomas having the highest binding to ELISA and FACS were taken for production and purification of antibodies. mIgG was used as negative control in the both assays.

The target of assay [6] is T4, human CD79B. Put plainly: ELISA of culture supernatant of anti-human CD79B hybridoma positive clones. As to conditions: 1 μg/mL coated antigen. The assay is classed as binding. The protocol:
as §1, with “3)” for “2)”, “screening:” for “assay on anti-human CD79B mouse monoclonal antibodies:”, “cell supernatant to be detected,” for “of diluted antibody at 1:10 at 100 nM,”
5) Hybridoma positive clone identification: after fusion and subclone screening of mouse splenocytes, multiple specific antibodies against human CD79B antigen were obtained, and the antibodies from the 17 strains of hybridomas having the highest binding to ELISA and FACS were produced and purified. […]

Positions count from the first letter of the chain named.

B1: anti-TROP-2 antibody PD3 (antibody, human IgG1, kappa, V domains shown)
VH: EVQLVQSGSELKKPGASVKVSCKASGYTFTNYGMNWVKQAPGQGLKWMGWINTYTGEPTYTQDFKGRFAFSLDTSVSTAYLQISSLKAEDTAVYYCARGGFGSSYWYFDVWGQGTLVTVSS
VL: DIQLTQSPSSLSASVGDRVSITCKASQDVSIAVAWYQQKPGKAPKLLIYSASYRYTGVPDRFSGSGSGTDFTLTISSLQPEDFAVYYCQQHYITPLTFGAGTKVEIKR
notes: also called anti-human TROP-2 monoclonal antibody
Take B1: the binding result in assay [1] and in assay [2] was “binds” throughout.

B2: mAb015: anti-human CD79B mouse monoclonal antibody, VH SEQ ID NO: 3, VL SEQ ID NO: 4 (antibody, V domains shown)
VH: QVQLQQSGAELARPGASVKLSCKASGSSFTSYGINWVKQRTGQGLEWIGEIFPRSGNTYYNEKFEGKATLTADKSSSTAYMELRSLTSEDSAVYFCAKGDLGDFDYWGQGTTLTVSS
VL: DFLMTQTPLSLPVRLGDQASISCRSSQSIVHSDGNTYFEWYLQKPGQSPKLLIYKVSNRFSGVPDRFSGSGSGTDFTLKISRVEAEDLGVYYCFQGSHVPWTFGGGTKLEIK
As for B2, the FACS binding capacity entry in assay [3] is “highest FACS binding capacity”. The ELISA binding capacity result in assay [4] is recorded as “highest ELISA binding capacity”. In assay [5], this molecule displayed a Mean fluorescence value of 10036. The “Results (OD450)” value in assay [6] is listed as 3.41.

B3: mAb017: anti-human CD79B mouse monoclonal antibody, VH SEQ ID NO: 5, VL SEQ ID NO: 6 (antibody, V domains shown)
VH: QVQLQQSGAELARPGASVKLSCKASGYTFTTYGINWVKQRTGQGLEWIGEIYPRSGNIYYNEKFKGKATLTADKSSSTAYMELRSLTSEDSAVYFCARGSDYDGDFAYWGQGTLVTVSA
VL: B2 VL with F2V, R14S, S32H, F38L, K108Q
For B3, in assay [3], the FACS binding capacity result is reported as “highest FACS binding capacity”. In assay [4], the ELISA binding capacity entry was “highest ELISA binding capacity”. This molecule displayed a Mean fluorescence value in assay [5] of 8132. For the same molecule, the “Results (OD450)” value in assay [6] is reported as 3.80.

The values are drawn from US20230144203A1 (SHANGHAI SENHUI MEDICINE CO., LTD., priority 2020, published 2023).
